Literature values, collected in PMC3667765.

Biological target: E-cadherin (Homo sapiens) (UniProt P12830)
Sequence of UniProt P12830 (P12830 155-709): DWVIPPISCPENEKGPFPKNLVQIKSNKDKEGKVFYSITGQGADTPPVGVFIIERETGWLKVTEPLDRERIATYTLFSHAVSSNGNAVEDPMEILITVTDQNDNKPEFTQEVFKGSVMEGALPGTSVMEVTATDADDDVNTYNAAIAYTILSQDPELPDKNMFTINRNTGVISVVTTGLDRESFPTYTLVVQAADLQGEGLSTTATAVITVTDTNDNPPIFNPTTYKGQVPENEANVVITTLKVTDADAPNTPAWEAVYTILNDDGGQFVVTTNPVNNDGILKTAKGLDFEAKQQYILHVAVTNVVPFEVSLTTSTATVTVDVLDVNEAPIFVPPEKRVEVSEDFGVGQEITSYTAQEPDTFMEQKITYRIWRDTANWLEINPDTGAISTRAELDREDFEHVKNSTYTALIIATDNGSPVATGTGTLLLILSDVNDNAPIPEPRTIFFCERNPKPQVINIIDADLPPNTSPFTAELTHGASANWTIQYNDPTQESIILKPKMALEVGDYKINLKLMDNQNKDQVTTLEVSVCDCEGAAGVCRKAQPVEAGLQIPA

Internalin A (from UniProt P0DJM0)
Kd: 8 µM
